Measured values published in US20250155457A1 (DIAGNOSTICA STAGO, published 2025).

Experiments:
Assay in all cases: cell-based or functional assay
[1] = target: T1, exogenous platelet factor 4 (PF4), heparin-modified (PF4/heparin complex) (UniProt P02776 32-101)
T1 sequence (looked up): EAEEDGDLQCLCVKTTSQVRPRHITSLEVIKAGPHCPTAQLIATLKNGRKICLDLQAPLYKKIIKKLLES

[2] = target: T1, exogenous platelet factor 4 (PF4), …; remark: listed apart in the source
[3] = target: T1, exogenous platelet factor 4 (PF4), …; remark: listed apart in the source
[4] = target: T1, exogenous platelet factor 4 (PF4), …; remark: listed apart in the source
[5] = target: T1, exogenous platelet factor 4 (PF4), …; remark: listed apart in the source
[6] = target: T1, exogenous platelet factor 4 (PF4), …; remark: listed apart in the source
[7] = target: T1, exogenous platelet factor 4 (PF4), …; remark: listed apart in the source
[8] = target: T1, exogenous platelet factor 4 (PF4), …; remark: listed apart in the source
[9] = target: T1, exogenous platelet factor 4 (PF4), …; remark: listed apart in the source
[10] = target: T1, exogenous platelet factor 4 (PF4), …; remark: listed apart in the source
[11] = target: T1, exogenous platelet factor 4 (PF4), …; remark: listed apart in the source
[12] = target: T1, exogenous platelet factor 4 (PF4), …; remark: listed apart in the source

- VS series activation ratio, CD62P labeling, patient 3 whole blood [1]: 94.2 ratio
- VS series inhibition ratio, CD62P labeling, patient 3 whole blood (heparin 100 IU/ml) [1]: 0.57 ratio
- VS series activation ratio, CD62P labeling, patient 5 whole blood [2]: 52.7 ratio
- VS series inhibition ratio, CD62P labeling, patient 5 whole blood (heparin 100 IU/ml) [2]: 0.84 ratio
- VS series activation ratio, Annexin V labeling, patient 2 whole blood [3]: 11.3 ratio
- VS series inhibition ratio, Annexin V labeling, patient 2 whole blood (heparin 100 IU/ml) [3]: 0.65 ratio
- VS series activation ratio, CD62P labeling, patient 6 whole blood [4]: 117 ratio
- VS series inhibition ratio, CD62P labeling, patient 6 whole blood (heparin 100 IU/ml) [4]: 0.94 ratio
- VS series activation ratio, Annexin V labeling, patient 6 whole blood [5]: 26.5 ratio
- VS series inhibition ratio, Annexin V labeling, patient 6 whole blood (heparin 100 IU/ml) [5]: 0.75 ratio
- VS series activation ratio, CD62P labeling, patient 2 whole blood [6]: 13.2 ratio
- VS series inhibition ratio, CD62P labeling, patient 2 whole blood (heparin 100 IU/ml) [6]: 0.9 ratio
- VS series activation ratio, Annexin V labeling, patient 3 whole blood [7]: 21.7 ratio
- VS series inhibition ratio, Annexin V labeling, patient 3 whole blood (heparin 100 IU/ml) [7]: 0.74 ratio
- VS series activation ratio, CD62P labeling, patient 1 whole blood (max % x MFI with 5B9 + PF4 + low heparin over basal) [8]: 300 ratio
- VS series inhibition ratio, CD62P labeling, patient 1 whole blood (heparin 100 IU/ml) [8]: 0.88 ratio
- VS series activation ratio, Annexin V labeling, patient 1 whole blood [9]: 95.9 ratio
- VS series inhibition ratio, Annexin V labeling, patient 1 whole blood (heparin 100 IU/ml) [9]: 0.85 ratio
- VS series activation ratio, CD62P labeling, patient 4 whole blood [10]: 281 ratio
- VS series inhibition ratio, CD62P labeling, patient 4 whole blood (heparin 100 IU/ml) [10]: 0.94 ratio
- VS series activation ratio, Annexin V labeling, patient 4 whole blood [11]: 412 ratio
- VS series inhibition ratio, Annexin V labeling, patient 4 whole blood (heparin 100 IU/ml) [11]: 0.95 ratio
- VS series activation ratio, Annexin V labeling, patient 5 whole blood [12]: 8.6 ratio
- VS series inhibition ratio, Annexin V labeling, patient 5 whole blood (heparin 100 IU/ml) [12]: 0.61 ratio
B1: chimeric monoclonal antibody 5B9 (antibody, V domains shown)
VH: DVQLQESGPDLVKPSQSLSLTCTVTGYSITSGYSWHWIRQFPGNKLEWMGYIHYSGSTNYNPSLKSRISITRDTSKNQFFLQLNSVTTEDTATYYCARELRLRYFDVWGAGTTVTVSS
VL: EIVLTQSPTTMAASPGEKITITCSASSSISSNYLHWYQQKPGFSPKLLIYRTSNLASGVPARFSGSGSGTSYSLTIGTMEAEDVATYYCQQGSSIPLTFGAGTKLELKR
